Experimental data published in patent US20210355194A1 (TWIST BIOSCIENCE, published 2021).
Several values for one entry are separate records, joined by “and”; a condition that tells them apart may be missing. Identical values can stand only once. Like-named read-outs stand apart in the source and are kept apart here.

What was measured:
SARS-CoV-2 S1 protein [1] = target: T1, SARS-CoV-2 S1 protein (SARS-CoV-2, UniProt P0DTC2 16-685); assay: phage ELISA screen on S1, mean
T1 construct: also called SARS-CoV-2 Spike Glycoprotein S1; S1 (subunit 1)

SARS-CoV-2 S1 protein [2] = target: T1, SARS-CoV-2 S1 protein; assay: ELISA binding titration on coated antigen
SARS-CoV-2 S1 protein [3] = target: T1, SARS-CoV-2 S1 protein; assay: phage ELISA screen on S1, mean; remark: listed apart in the source
SARS-CoV-2 S1 protein [4] = target: T1, SARS-CoV-2 S1 protein; assay: inhibitor ELISA, competitor ACE2
SARS-CoV-2 S1 protein [5] = target: T1, SARS-CoV-2 S1 protein; assay: Carterra SPR, DB format, S1
SARS-CoV-2 S1 protein [6] = target: T1, SARS-CoV-2 S1 protein; assay: Carterra SPR, Fc capture, S1
SARS-CoV-2 S1 protein [7] = target: T1, SARS-CoV-2 S1 protein; assay: inhibitor ELISA, competitor ACE2; remark: listed apart in the source
[8] = target: T2, SARS-CoV-2 S protein RBD, SPD-C5259 (SARS-CoV-2, UniProt P0DTC2 319-537); assay: FACS, inhibition of S protein RBD binding to Vero cells
T2 construct: domain: RBD

[9] = target: T3, SARS-CoV-2 Spike Glycoprotein S1 (SARS-CoV-2, UniProt P0DTC2 16-685); assay: ELISA, plate coated with S1
T3 construct: also called S1 Monomer

S protein trimer = S protein trimer (SARS-CoV-2, UniProt P0DTC2 14-1208); assay: ELISA, plate coated with S protein trimer
[10] = target: T4, SARS-CoV-2 antigen of the epitope binning (SARS-CoV-2, UniProt P0DTC2 16-685); assay: epitope binning; competitor 1-16
T4 construct: also called S1

[11] = target: T4, SARS-CoV-2 antigen of the epitope …; assay: epitope binning; competitor CR3022
[12] = target: T4, SARS-CoV-2 antigen of the epitope …; assay: epitope binning; competitor Acro mAb
[13] = target: T4, SARS-CoV-2 antigen of the epitope …; assay: epitope binning; competitor 1-35
[14] = target: T4, SARS-CoV-2 antigen of the epitope …; assay: epitope binning; competitor 1-32
[15] = target: T4, SARS-CoV-2 antigen of the epitope …; assay: epitope binning; competitor 2-8
[16] = target: T4, SARS-CoV-2 antigen of the epitope …; assay: epitope binning; competitor 2-6
[17] = target: T4, SARS-CoV-2 antigen of the epitope …; assay: epitope binning; competitor 2-11
[18] = target: T4, SARS-CoV-2 antigen of the epitope …; assay: epitope binning; competitor 2-2
[19] = target: T4, SARS-CoV-2 antigen of the epitope …; assay: epitope binning; competitor 2-5
human ACE2 [20] = target: T5, human ACE2 (human, UniProt Q9BYF1 18-740)
human ACE2 [21] = target: T5, human ACE2; remark: listed apart in the source

T5 sequence (Q9BYF1 18-740 limits assumed): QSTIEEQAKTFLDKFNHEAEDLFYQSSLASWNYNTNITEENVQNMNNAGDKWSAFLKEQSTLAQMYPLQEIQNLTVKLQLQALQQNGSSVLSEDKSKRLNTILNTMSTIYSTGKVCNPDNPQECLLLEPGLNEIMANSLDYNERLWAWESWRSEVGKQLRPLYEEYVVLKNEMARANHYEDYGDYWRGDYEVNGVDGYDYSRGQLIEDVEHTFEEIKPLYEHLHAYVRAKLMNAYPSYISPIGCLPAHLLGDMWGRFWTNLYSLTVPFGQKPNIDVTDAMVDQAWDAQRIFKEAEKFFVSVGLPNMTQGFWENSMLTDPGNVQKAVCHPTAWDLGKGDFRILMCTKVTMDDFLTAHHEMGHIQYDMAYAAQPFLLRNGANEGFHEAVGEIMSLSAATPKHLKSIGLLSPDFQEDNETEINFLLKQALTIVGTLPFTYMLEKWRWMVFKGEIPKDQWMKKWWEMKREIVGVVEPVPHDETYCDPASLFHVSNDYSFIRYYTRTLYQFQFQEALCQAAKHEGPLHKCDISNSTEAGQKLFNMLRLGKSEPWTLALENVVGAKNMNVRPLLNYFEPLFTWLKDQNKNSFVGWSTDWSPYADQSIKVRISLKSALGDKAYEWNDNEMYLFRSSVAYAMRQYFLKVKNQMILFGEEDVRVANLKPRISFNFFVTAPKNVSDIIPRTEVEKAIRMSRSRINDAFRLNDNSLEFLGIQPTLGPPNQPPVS

B1: 2-2 (second entry, printed after 2-19) (antibody, V domains shown)
VH: EVQLLESGGGLVQPGGSLRLSCAASGFTFSSYDMSWVRQAPGKGLEWVSVISGSGGSTYYADSVKGRFTISRDNSKNTLYLQMNSLRAEDTAVYYCAKGPLVGWYFDLWGQGTLVTVSS
VL: DIQMTQSPSSLSASVGDRVTITCTGTSSNVGSYNLVSWYQQKPGKAPKLLIYEGTKRPSGVPSRFSGSGSGTDFTLTISSLQPEDFATYYCCSYAGSSSFVVFGQGTKVEIK
ELISA(Avg) (SARS-CoV-2 S1 protein [1]): 12.8 fold over background | EC50 (SARS-CoV-2 S1 protein [2]): 100 nM | ELISA(Avg) (SARS-CoV-2 S1 protein [3]): 12.8 fold over background

B2: 2-16 (antibody, V domains shown)
VH: EVQLLESGGGLVQPGGSLRLSCAASGFTFSSYAMSWVRQAPGKGLEWVSVISGSGGSTYYADSVKGRFTISRDNSKNTLYLQMNSLRAEDTAVYYCAREGYRDYLWYFDLWGQGTLVTVSS
VL: DIQMTQSPSSLSASVGDRVTITCTGTSSDVGSYDLVSWYQQKPGKAPKLLIYEGNKRPSGVPSRFSGSGSGTDFTLTISSLQPEDFATYYCCSYAGSSVVFGQGTKVEIK
notes: also called variant 2-16
ELISA(Avg) (SARS-CoV-2 S1 protein [1]): 7.1 fold over background | IC50 (SARS-CoV-2 S1 protein [4]): 433 nM | ELISA(Avg) (SARS-CoV-2 S1 protein [3]): 7.1 fold over background

B3: 2-17 (antibody, V domains shown)
VH: EVQLLESGGGLVQPGGSLRLSCAASGFTFSNYAMSWVRQAPGKGLEWVSAISGSAGSTYYADSVKGRFTISRDNSKNTLYLQMNSLRAEDTAVYYCARVRQGLRRTWYYFDYWGQGTLVTVSS
VL: DIQMTQSPSSLSASVGDRVTITCTGTSSDVGSSNLVSWYQQKPGKAPKLLIYEGSKRPSGVPSRFSGSGSGTDFTLTISSLQPEDFATYYCCSYAGSLYVFGQGTKVEIK
notes: also called variant 2-17
ELISA(Avg) (SARS-CoV-2 S1 protein [1]): 3.5 fold over background | EC50 (SARS-CoV-2 S1 protein [2]): 100 nM | ELISA(Avg) (SARS-CoV-2 S1 protein [3]): 3.5 fold over background

B4: 2-5 (antibody, V domains shown)
VH: EVQLLESGGGLVQPGGSLRLSCAASGFTFSDFAMAWVRQAPGKGLEWVSAISGSGDITYYADSVKGRFTISRDNSKNTLYLQMNSLRAEDTAVYYCAREADGLHSPWHFDLWGQGTLVTVSS
VL: DIQMTQSPSSLSASVGDRVTITCRASQSIHTYLNWYQQKPGKAPKLLIYAASALASGVPSRFSGSGSGTDFTLTISSLQPEDFATYYCQQSYSAPPYTFGQGTKVEIK
notes: also called variant 2-5
Kd (SARS-CoV-2 S1 protein [5]): 2.8 nM | EC50 (SARS-CoV-2 S1 protein [2]): 0.133 nM | Kd (SARS-CoV-2 S1 protein [6]): 1.9 nM | IC50 (SARS-CoV-2 S1 protein [7]): 4.2 nM | ELISA(Avg) (SARS-CoV-2 S1 protein [3]): 30.8 fold over background

B5: 2-4 (antibody, V domains shown)
VH: EVQLLESGGGLVQPGGSLRLSCAASGFTFSDFAMAWVRQAPGKGLEWVSAISGSGDITYYADSVKGRFTISRDNSKNTLYLQMNSLRAEDTAVYYCAREADGLHSPWHFDLWGQGTLVTVSS
VL: DIQMTQSPSSLSASVGDRVTITCRASQSIDTYLNWYQQKPGKAPKLLIYAASALASGVPSRFSGSGSGTDFTLTISSLQPEDFATYYCQQSYSAPPYTFGQGTKVEIK
IC50 [8]: 46.3 nM | S1 Monomer [9]: 1.58 nM | S Trimer (S protein trimer): 10.2 nM

B6: 2-8 (antibody, V domains shown)
VH: EVQLLESGGGLVQPGGSLRLSCAASGFTFSDFAMAWVRQAPGKGLEWVSAISGSGDITYYADSVKGRFTISRDNSKNTLYLQMNSLRAEDTAVYYCAREADGLHSPWHFDLWGQGTLVTVSS
VL: DIQMTQSPSSLSASVGDRVTITCRASQSIDTYLNWYQQKPGKAPKLLIYAASALASGVPSRFSGSGSGTDFTLTISSLQPEDFATYYCQQSYSAPPYTFGQGTKVEIK
epitope binning score [10]: 1 | epitope binning score [11]: 0 | IC50 [8]: 19.5 nM | epitope binning score [12]: 1 | epitope binning score [13]: 1 | S1 Monomer [9]: 1.52 nM | S Trimer (S protein trimer): 7.08 nM | epitope binning score [14]: 1 | epitope binning score [15]: 0 | epitope binning score [16]: 1 | epitope binning score [17]: 1 | epitope binning score [18]: 0 | epitope binning score [19]: 0

B7: 2-5 (antibody, V domains shown)
VH: EVQLLESGGGLVQPGGSLRLSCAASGFTFSDFAMAWVRQAPGKGLEWVSAISGSGDITYYADSVKGRFTISRDNSKNTLYLQMNSLRAEDTAVYYCAREADGLHSPWHFDLWGQGTLVTVSS
VL: DIQMTQSPSSLSASVGDRVTITCRASQSIHTYLNWYQQKPGKAPKLLIYAASALASGVPSRFSGSGSGTDFTLTISSLQPEDFATYYCQQSYSAPPYTFGQGTKVEIK
epitope binning score [10]: 1 | epitope binning score [11]: 0 | IC50 [8]: 4.4 nM | epitope binning score [12]: 1 | epitope binning score [13]: 1 | S1 Monomer [9]: 0.17 nM | S Trimer (S protein trimer): 0.59 nM | epitope binning score [14]: 1 | epitope binning score [15]: 0 | epitope binning score [16]: 1 | epitope binning score [17]: 1 | epitope binning score [18]: 0 | epitope binning score [19]: 0

B8: 4-140 (VHH)
VHH: EVQLVESGGGLVQPGGSLRLSCAASGRTFSNAAMGWFRQAPGKEREFVARITWNGGSTFYADSVKGRFTISADNSKNTAYLQMNSLKPEDTAVYYCATTENPNPRWGQGTLVTVSS
IC50 (human ACE2 [20]): 3.07 nM | Kd (human ACE2 [21]): 8.9 nM

B9: 4-101 (VHH)
VHH: EVQLVESGGGLVQPGGSLRLSCAASGRTFSNAAMGWFRQAPGKEREFVARILWTGASRSYADSVKGRFTISADNSKNTAYLQMNSLKPEDTAVYYCATTENPNPRWGQGTLVTVSS
IC50 (human ACE2 [20]): 0.568 nM | Kd (human ACE2 [21]): 5.8 nM

B10: 4-54 (VHH)
VHH: EVQLVESGGGLVQPGGSLRLSCAASGRTFSDARMGWFRQAPGKEREFVGAVSWSGGTTVYADSVKGRFTISADNSKNTAYLQMNSLKPEDTAVYYCATTEDPYPRWGQGTLVTVSS
IC50 (human ACE2 [20]): 2 nM | Kd (human ACE2 [21]): 645 nM

B11: 4-39 (VHH)
VHH: EVQLVESGGGLVQPGGSLRLSCAASGRTFSNAAMGWFRQAPGKEREFVARILWTGASRNYADSVKGRFTISADNSKNTAYLQMNSLKPEDTAVYYCATTENPNPRWGQGTLVTVSS
IC50 (human ACE2 [20]): 1.15 nM | Kd (human ACE2 [21]): 17.5 nM

B12: 4-17 (VHH)
VHH: EVQLVESGGGLVQPGGSLRLSCAASGQLANFASYAMGWFRQAPGKEREFVAAITRSGSSTVYADSVKGRFTISADNSKNTAYLQMNSLKPEDTAVYYCATTMNPNPRWGQGTLVTVSS
IC50 (human ACE2 [20]): 0.721 nM | Kd (human ACE2 [21]): 18.8 nM and 30.6 nM

B13: 2-2 (antibody, V domains shown)
VH: EVQLLESGGGLVQPGGSLRLSCAASGFTFSRHAMNWVRQAPGKGLEWVSGISGSGDETYYADSVKGRFTISRDNSKNTLYLQMNSLRAEDTAVYYCARDLPASYYDSSGYYWHNGMDVWGQGTLVTVSS
VL: DIQMTQSPSSLSASVGDRVTITCRASQTINTYLNWYQQKPGKAPKLLIYSASTLQSGVPSRFSGSGSGTDFTLTISSLQPEDFATYYCQQSYSTFTFGQGTKVEIK
notes: also called variant 2-2
Kd (SARS-CoV-2 S1 protein [5]): 11.7 nM | EC50 (SARS-CoV-2 S1 protein [2]): 0.612 nM | Kd (SARS-CoV-2 S1 protein [6]): 58.3 nM | IC50 (SARS-CoV-2 S1 protein [7]): 3.6 nM | ELISA(Avg) (SARS-CoV-2 S1 protein [3]): 23.4 fold over background

B14: 2-2 (antibody, V domains shown)
VH: EVQLLESGGGLVQPGGSLRLSCAASGFTFSRHAMNWVRQAPGKGLEWVSGISGSGDETYYADSVKGRFTISRDNSKNTLYLQMNSLRAEDTAVYYCARDLPASYYDSSGYYWHNGMDVWGQGTLVTVSS
VL: DIQMTQSPSSLSASVGDRVTITCRASQTINTYLNWYQQKPGKAPKLLIYSASTLQSGVPSRFSGSGSGTDFTLTISSLQPEDFATYYCQQSYSTFTFGQGTKVEIK
epitope binning score [10]: 0 | epitope binning score [11]: 0 | IC50 [8]: 3 nM | epitope binning score [12]: 0 | epitope binning score [13]: 1 | S1 Monomer [9]: 0.13 nM | S Trimer (S protein trimer): 0.64 nM | epitope binning score [14]: 2 | epitope binning score [15]: 0 | epitope binning score [16]: 2 | epitope binning score [17]: 0 | epitope binning score [18]: 0 | epitope binning score [19]: 0
